T1: DFNB31_2, Q9P202
T1 sequence (Q9P202 274-371, limits assumed, looked up): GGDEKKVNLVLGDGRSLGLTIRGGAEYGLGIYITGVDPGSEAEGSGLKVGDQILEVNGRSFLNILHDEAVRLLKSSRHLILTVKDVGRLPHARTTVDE

T2: GRIP1_2, Q9Y3R0
T2 sequence (Q9Y3R0 145-248, limits assumed, looked up): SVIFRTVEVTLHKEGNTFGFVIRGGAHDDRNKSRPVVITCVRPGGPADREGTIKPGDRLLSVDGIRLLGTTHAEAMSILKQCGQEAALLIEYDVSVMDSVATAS

T3: GRIP1_7, Q9Y3R0
T3 sequence (Q9Y3R0 999-1096, limits assumed, looked up): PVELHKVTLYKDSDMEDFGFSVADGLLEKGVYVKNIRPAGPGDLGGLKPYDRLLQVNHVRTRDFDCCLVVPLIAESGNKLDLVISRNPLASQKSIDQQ

T4: LRRC7, Q96NW7
T4 sequence (Q96NW7 1440-1537, limits assumed, looked up): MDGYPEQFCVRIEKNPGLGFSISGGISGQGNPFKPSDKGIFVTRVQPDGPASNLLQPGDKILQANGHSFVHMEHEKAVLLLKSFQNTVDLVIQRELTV

T5: MPDZ_10, O75970
T5 sequence (O75970 1624-1722, limits assumed, looked up): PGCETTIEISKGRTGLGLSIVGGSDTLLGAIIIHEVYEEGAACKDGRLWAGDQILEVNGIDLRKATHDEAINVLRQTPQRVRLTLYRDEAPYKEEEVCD

T6: MPDZ_5, O75970
T6 sequence (O75970 695-796, limits assumed, looked up): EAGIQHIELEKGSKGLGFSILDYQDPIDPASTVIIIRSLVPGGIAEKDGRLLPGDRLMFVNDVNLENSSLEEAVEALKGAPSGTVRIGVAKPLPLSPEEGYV

T7: MPP6, Q9NZW5
T7 sequence (Q9NZW5 125-219, limits assumed, looked up): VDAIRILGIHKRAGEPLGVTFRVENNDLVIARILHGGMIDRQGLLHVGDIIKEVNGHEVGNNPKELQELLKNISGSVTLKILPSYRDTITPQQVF

T8: MPP7, Q5T2T1
T8 sequence (Q5T2T1 134-230, limits assumed, looked up): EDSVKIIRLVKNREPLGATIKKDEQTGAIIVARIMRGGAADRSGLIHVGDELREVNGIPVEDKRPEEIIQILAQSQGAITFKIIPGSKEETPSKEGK

T9: RADIL, Q96JH8
T9 sequence (Q96JH8 971-1071, limits assumed, looked up): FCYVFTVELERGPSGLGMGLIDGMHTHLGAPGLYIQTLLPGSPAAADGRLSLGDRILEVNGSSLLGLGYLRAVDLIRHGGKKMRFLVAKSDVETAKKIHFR

T10: RAPGEF6, Q8TEU7
T10 sequence (Q8TEU7 525-625, limits assumed, looked up): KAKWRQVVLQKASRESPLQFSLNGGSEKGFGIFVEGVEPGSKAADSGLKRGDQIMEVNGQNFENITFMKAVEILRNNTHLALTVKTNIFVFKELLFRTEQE


Key:
Experiment in all cases: holdup assay
Set-up in all cases: key: below the threshold = too weak to quantify, mostly under pKd 3.1 to 4
Conditions in all cases: plain residues with an end cap or a label only (N-terminal biotin on a linker: ado-ado)
[1] = molecular target: CASK, O14936
[2] = molecular target: T1, DFNB31_2, Q9P202
[3] = molecular target: DLG4_3, P78352
[4] = molecular target: FRMPD2_3, Q68DX3
[5] = molecular target: FRMPD4, Q14CM0
[6] = molecular target: GIPC2, Q8TF65
[7] = molecular target: T2, GRIP1_2, Q9Y3R0
[8] = molecular target: T3, GRIP1_7, Q9Y3R0
[9] = molecular target: GRIP2_6, Q9C0E4
[10] = molecular target: HTRA2, O43464
[11] = molecular target: IL16_1, Q14005
[12] = molecular target: Inadl_2, Q8NI35
[13] = molecular target: Inadl_4, Q8NI35
[14] = molecular target: LDB3, O75112
[15] = molecular target: T4, LRRC7, Q96NW7
[16] = molecular target: MAGI2_3, Q86UL8
[17] = molecular target: MAGI2_5, Q86UL8
[18] = molecular target: MAGI3_2, Q5TCQ9
[19] = molecular target: MAST1, Q9Y2H9
[20] = molecular target: T5, MPDZ_10, O75970
[21] = molecular target: T6, MPDZ_5, O75970
[22] = molecular target: T7, MPP6, Q9NZW5
[23] = molecular target: T8, MPP7, Q5T2T1
[24] = molecular target: NHERF4_1, Q86UT5-2
[25] = molecular target: PDZRN4_1, Q6ZMN7
[26] = molecular target: PTPN3, P26045
[27] = molecular target: T9, RADIL, Q96JH8
[28] = molecular target: T10, RAPGEF6, Q8TEU7

Chain of DLG4_3, P78352 (P78352 306-403): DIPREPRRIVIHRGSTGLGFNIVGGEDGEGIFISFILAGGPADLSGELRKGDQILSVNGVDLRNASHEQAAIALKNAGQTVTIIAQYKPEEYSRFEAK
Chain of CASK, O14936 (O14936 487-570): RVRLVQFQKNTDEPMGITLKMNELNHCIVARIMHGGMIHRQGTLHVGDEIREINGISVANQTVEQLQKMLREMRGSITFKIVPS
Chain of MAST1, Q9Y2H9 (Q9Y2H9 962-1065): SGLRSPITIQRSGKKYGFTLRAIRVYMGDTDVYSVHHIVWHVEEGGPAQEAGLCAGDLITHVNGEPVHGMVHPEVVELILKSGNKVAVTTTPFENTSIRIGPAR
Chain of HTRA2, O43464 (O43464 355-458): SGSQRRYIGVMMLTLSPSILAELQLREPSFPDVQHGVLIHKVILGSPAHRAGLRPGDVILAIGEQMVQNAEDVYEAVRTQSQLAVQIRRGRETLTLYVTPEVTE
Chain of FRMPD2_3, Q68DX3 (Q68DX3 1073-1166): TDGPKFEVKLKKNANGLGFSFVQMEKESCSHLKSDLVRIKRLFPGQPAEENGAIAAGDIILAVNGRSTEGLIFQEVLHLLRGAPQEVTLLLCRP
Chain of GRIP2_6, Q9C0E4 (Q9C0E4 648-740): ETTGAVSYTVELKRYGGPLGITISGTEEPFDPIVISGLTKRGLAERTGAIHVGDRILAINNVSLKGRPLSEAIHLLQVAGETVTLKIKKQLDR
Chain of PDZRN4_1, Q6ZMN7 (Q6ZMN7 213-318): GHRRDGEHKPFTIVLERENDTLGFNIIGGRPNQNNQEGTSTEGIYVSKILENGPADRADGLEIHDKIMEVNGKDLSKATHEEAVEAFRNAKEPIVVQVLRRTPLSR
Chain of Inadl_2, Q8NI35 (Q8NI35 238-335): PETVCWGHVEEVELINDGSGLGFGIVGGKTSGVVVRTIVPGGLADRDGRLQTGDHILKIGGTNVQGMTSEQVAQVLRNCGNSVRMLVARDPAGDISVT
Chain of GIPC2, Q8TF65 (Q8TF65 112-203): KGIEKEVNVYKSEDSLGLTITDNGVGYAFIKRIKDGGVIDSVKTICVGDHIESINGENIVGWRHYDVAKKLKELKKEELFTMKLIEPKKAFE
Chain of MAGI2_3, Q86UL8 (Q86UL8 600-682): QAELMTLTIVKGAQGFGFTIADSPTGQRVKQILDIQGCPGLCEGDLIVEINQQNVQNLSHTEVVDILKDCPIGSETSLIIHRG
Chain of MAGI3_2, Q5TCQ9 (Q5TCQ9 398-503): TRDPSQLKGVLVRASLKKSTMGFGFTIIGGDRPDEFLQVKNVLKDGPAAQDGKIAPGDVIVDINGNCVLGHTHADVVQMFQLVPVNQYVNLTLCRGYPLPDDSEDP
Chain of LDB3, O75112 (O75112 1-94): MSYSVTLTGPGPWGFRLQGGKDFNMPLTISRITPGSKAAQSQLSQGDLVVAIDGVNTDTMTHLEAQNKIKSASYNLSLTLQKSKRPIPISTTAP
Chain of MAGI2_5, Q86UL8 (Q86UL8 915-1017): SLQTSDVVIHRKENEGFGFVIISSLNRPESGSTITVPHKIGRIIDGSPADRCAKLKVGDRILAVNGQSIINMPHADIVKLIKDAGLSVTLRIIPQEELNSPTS
Chain of NHERF4_1, Q86UT5-2 (Q86UT5 other isoform, or with tags, fused parts or gaps): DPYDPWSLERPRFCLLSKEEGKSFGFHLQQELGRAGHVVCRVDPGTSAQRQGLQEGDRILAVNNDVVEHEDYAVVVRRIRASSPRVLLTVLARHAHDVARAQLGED
Chain of PTPN3, P26045 (P26045 505-587): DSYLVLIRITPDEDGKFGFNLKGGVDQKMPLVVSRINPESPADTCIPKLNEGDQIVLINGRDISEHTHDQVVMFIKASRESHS
Chain of IL16_1, Q14005 (Q14005 210-306): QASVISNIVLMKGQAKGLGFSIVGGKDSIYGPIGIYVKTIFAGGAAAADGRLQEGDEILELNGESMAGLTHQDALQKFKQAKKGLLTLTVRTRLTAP
Chain of FRMPD4, Q14CM0 (Q14CM0 67-160): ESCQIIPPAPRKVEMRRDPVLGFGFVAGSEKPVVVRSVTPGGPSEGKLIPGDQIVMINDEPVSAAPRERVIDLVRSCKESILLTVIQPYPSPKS
Chain of Inadl_4, Q8NI35 (Q8NI35 547-651): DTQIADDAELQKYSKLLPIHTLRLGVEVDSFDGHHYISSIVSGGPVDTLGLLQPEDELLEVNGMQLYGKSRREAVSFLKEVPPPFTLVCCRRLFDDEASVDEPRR

Binder | pKd [1] | pKd [2] | pKd [3] | pKd [4] | pKd [5] | pKd [6] | pKd [7] | pKd [8] | pKd [9] | pKd [10] | pKd [11] | pKd [12] | pKd [13] | pKd [14] | pKd [15] | pKd [16] | pKd [17] | pKd [18] | pKd [19] | pKd [20] | other results
EPAKETTTNV [SLC2A3, P11169] | below the threshold | below the threshold | 3.7 | below the threshold | 3.52 | below the threshold | below the threshold | below the threshold | below the threshold | below the threshold | below the threshold | below the threshold | below the threshold | below the threshold | below the threshold | below the threshold | below the threshold | below the threshold | 4.46 | below the threshold | pKd [21]: below the threshold; pKd [22]: 3.81; pKd [23]: below the threshold; pKd [24]: below the threshold; pKd [25]: below the threshold; pKd [26]: 4.49; pKd [27]: 3.62; pKd [28]: below the threshold
PGKKPEDSRV [SLCO2B1, O94956] | below the threshold | below the threshold | below the threshold | below the threshold | below the threshold | below the threshold | below the threshold | below the threshold | below the threshold | below the threshold | 3.84 | below the threshold | below the threshold | below the threshold | below the threshold | below the threshold | below the threshold | 3.54 | below the threshold | below the threshold | pKd [21]: below the threshold; pKd [22]: below the threshold; pKd [23]: below the threshold; pKd [24]: below the threshold; pKd [25]: below the threshold; pKd [26]: below the threshold; pKd [27]: below the threshold; pKd [28]: below the threshold
SGDGKTSVWI [GJC1, P36383] | below the threshold | below the threshold | below the threshold | below the threshold | below the threshold | below the threshold | below the threshold | below the threshold | 3.55 | 4.25 | below the threshold | below the threshold | below the threshold | below the threshold | 3.49 | below the threshold | below the threshold | below the threshold | below the threshold | below the threshold | pKd [21]: below the threshold; pKd [22]: below the threshold; pKd [23]: below the threshold; pKd [24]: 3.57; pKd [25]: below the threshold; pKd [26]: 4.06; pKd [27]: 4.13; pKd [28]: below the threshold
GNDPDRGTSI [GRID2, O43424] | below the threshold | below the threshold | below the threshold | below the threshold | below the threshold | below the threshold | below the threshold | below the threshold | below the threshold | below the threshold | below the threshold | below the threshold | below the threshold | below the threshold | below the threshold | below the threshold | below the threshold | below the threshold | 3.94 | below the threshold | pKd [21]: below the threshold; pKd [22]: below the threshold; pKd [23]: below the threshold; pKd [24]: below the threshold; pKd [25]: 3.49; pKd [26]: 4.52; pKd [27]: below the threshold; pKd [28]: below the threshold
